Assay results as given in patent US10946092 (BEIJING MABWORKS BIOTECH, dated 2021).
Read-outs that look alike come from different tables or passages of the source.

T1: recombinant human LAG3(ECD)-his (Sino Biological, Cat #: 16498-H08H) (human, UniProt P18627 23-450)
T1 construct: extracellular domain; Bought protein; not shown: his tag
T1 sequence (looked up): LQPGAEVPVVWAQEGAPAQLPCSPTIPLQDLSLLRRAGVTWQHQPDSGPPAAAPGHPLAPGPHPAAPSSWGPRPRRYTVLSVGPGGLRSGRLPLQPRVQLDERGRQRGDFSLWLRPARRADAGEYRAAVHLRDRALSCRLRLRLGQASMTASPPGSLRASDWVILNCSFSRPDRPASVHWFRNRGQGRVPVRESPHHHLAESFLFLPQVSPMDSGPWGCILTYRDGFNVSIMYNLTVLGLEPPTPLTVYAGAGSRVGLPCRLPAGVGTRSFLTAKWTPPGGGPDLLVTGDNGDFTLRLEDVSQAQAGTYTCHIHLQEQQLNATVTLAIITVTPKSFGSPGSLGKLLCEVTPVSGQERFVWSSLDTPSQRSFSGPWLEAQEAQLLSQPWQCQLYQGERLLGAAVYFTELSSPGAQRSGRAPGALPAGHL

T2: Human PBMC
T2 chain: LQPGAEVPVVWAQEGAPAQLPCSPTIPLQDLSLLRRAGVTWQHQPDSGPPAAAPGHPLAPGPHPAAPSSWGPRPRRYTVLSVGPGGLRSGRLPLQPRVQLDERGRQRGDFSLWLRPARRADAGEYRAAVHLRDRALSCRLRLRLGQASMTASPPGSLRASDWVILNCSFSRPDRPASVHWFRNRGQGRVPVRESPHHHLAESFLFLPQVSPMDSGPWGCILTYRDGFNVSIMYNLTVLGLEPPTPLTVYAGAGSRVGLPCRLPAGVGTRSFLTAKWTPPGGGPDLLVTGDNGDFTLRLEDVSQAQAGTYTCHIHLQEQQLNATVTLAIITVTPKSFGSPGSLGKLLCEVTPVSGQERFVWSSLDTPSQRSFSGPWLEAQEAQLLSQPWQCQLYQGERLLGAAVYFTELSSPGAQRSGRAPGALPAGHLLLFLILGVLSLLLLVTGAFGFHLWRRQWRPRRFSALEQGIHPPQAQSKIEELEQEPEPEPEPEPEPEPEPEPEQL

T3: human LAG3 expressed on HEK293A cells (human, UniProt P18627 23-525)
T3 construct: whole, on cells; also called HEK293A/human LAG3
T3 sequence (looked up): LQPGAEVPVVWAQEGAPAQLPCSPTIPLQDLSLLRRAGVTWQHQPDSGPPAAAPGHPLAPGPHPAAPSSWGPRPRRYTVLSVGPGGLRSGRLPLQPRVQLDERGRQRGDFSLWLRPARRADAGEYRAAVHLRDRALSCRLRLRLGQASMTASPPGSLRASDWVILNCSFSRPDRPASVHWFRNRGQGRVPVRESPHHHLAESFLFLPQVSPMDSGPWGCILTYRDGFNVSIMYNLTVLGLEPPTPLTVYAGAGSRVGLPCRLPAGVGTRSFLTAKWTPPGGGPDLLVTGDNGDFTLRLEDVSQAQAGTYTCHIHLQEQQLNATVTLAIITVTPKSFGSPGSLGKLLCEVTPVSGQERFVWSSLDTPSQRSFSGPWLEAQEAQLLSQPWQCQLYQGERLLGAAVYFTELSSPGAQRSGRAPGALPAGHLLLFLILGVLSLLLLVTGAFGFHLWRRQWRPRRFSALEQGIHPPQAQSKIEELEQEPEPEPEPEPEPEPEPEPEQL

T4: hLAG-3-hIg fusion protein (human LAG-3 extracellular domain fused to human Fc); Sino Biological, Cat #: … (human, UniProt P18627 23-450)
T4 construct: extracellular domain; Bought protein; also called LAG3 fusion protein; human LAG3(ECD)-hFc; not shown: human Fc
T4 sequence (looked up): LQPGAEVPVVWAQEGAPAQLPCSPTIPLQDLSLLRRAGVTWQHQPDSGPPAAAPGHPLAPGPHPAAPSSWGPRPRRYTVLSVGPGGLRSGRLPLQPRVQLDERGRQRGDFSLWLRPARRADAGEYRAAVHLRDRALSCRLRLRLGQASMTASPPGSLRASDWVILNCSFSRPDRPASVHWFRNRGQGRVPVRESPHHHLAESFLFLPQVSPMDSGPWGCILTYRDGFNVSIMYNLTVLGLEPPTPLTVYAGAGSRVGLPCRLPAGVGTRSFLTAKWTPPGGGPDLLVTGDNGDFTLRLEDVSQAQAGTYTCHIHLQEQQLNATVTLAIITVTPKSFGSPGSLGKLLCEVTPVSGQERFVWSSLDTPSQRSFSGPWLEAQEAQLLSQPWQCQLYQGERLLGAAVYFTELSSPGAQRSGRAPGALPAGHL


Assays:
[1] = target: T1, recombinant human LAG3(ECD)-his (Sino …); assay: SPR (BIAcore 8K), human LAG3(ECD)-his coupled to chip, antibody injected, 1:1 Langmuir; printed a second time as 'Ka values', read as Kd
Experimental: (§1) Serially diluted antibodies at concentrations ranging from 0.3 μM to 10 μM were injected into the SPR running buffer (HBS-EP buffer, pH7.4, GE Life Sciences; US; Cat #: BR-1006-69) at 30 μL/minute. The binding capacities were calculated with the RUs of blank controls subtracted. The association rate (Ka) and dissociation rate (Kd) were calculated using the one-to-one Langmuir binding model (BIA Evaluation Software, GE Life Sciences). The equilibrium dissociation constant K_D was calculated as the kd/ka ratio.

[2] = target: T1, recombinant human LAG3(ECD)-his (Sino …); assay: SPR (BIAcore 8K), human LAG3(ECD)-his coupled to chip, antibody injected, 1:1 Langmuir
Experimental: as §1

[3] = target: T2, Human PBMC; assay: FACS on activated human PBMC
Experimental: Briefly, 10^5 HEK293A cells in 50 μl PBS buffers were seeded into each well of the 96-well plates and then added with 50 μl of serially diluted anti-LAG3 antibodies (5-fold dilution, starting from 40 μg/ml). After incubated at 4° C. for 1 hour, plates were washed 3 times with PBST. Then, an APC coupled Goat Anti-Mouse IgG (BioLegend, US, Cat #: 405308) diluted 500× was added to the plates. After incubation at 4° C. for 1 hour, the plates were washed with PBS for 3 times and then cell fluorescence was monitored using a FACS machine (BD).
Further, the binding activities of the two antibodies to actived human PBMCs were investigated by FACS. Briefly, human PBMCs were collected by density gradient centrifugation and then re-suspended in the complete medium (RPMI medium+10% FBS+ human IL-2 (20 IU/ml, R&D, Cat #: 202-IL)+ Dynabeads™ Human T-Activator CD3/CD28 (Gibco, Cat #: 11132D)) at 37° C. under 5% CO_2 in a humidified incubator for 2 days to get activated T cells. The cells were then collected and tested by FACS as described in Example 6.

[4] = target: T5, monkey LAG3(ECD)-mFc protein (ACRO, Cat #: LA3-052A0) (monkey); assay: SPR (BIAcore 8K), monkey LAG3(ECD)-mFc coupled to chip, antibody injected, 1:1 Langmuir
T5 construct: extracellular domain; Bought protein
Experimental: as §1

[5] = target: T3, human LAG3 expressed on HEK293A cells; assay: FACS on HEK293A cells expressing human LAG3
[6] = target: T4, hLAG-3-hIg fusion protein (human LAG-3 …); assay: FACS blocking assay: hLAG-3-hIg preincubated with the antibody, then binding to MHC II on Daudi cells
[7] = target: T3, human LAG3 expressed on HEK293A cells; assay: FACS on HEK293A cells expressing human LAG3; remark: listed apart in the source
[8] = target: T4, hLAG-3-hIg fusion protein (human LAG-3 …); assay: FACS blocking assay: hLAG-3-hIg preincubated with the antibody, then binding to MHC II on Daudi cells; remark: listed apart in the source

Binder | binding result [5] | binding result [6] | binding result [7] | binding result [8] | also measured
humanized antibody 101F4H2L2 (antibody, human IgG4 S228P, kappa, V domains shown, Human IgG4 (S228P)/kappa) VH: QVQLVQSGAEVKKPGASVKVSCKVSGYTFTDYEMHWVRQAPGKGLEWMGAIDPETGGIVYNQRFKGRVTLTADTSTDTAYMELSSLRSEDTAVYYCATAGWGYWGQGTTVTVSS VL: DIQMTQSPSSLSASVGDRVTITCKASQDINSYLSWYQQKPGKAPKLLIYRANRLLDGVPSRFSGSGSGQDYTLTISSLQPEDFATYYCLQYDEFPFTFGQGTKLEIKR |  |  |  |  | koff [1]: 0.398 s⁻¹; Kd [2]: 414 nM; kon [2]: 960000 M⁻¹ s⁻¹; EC50 (read off the curve) [3]: ~0.1 µg/mL; Kd [4]: 0.488 nM
humanized antibody 101F4H3L2 (antibody, human IgG4 S228P, kappa, V domains shown, Human IgG4 (S228P)/kappa) VH: QVQLVQSGAEVKKPGASVKVSCKASGYTFTDYEMHWVRQAPGKGLEWMGAIDPETGGIVYNQRFKGRATLTADTSTDTAYMELSSLRSEDTAVYYCAGAGWGYWGQGTTVTVSS VL: DIQMTQSPSSLSASVGDRVTITCKASQDINSYLSWYQQKPGKAPKLLIYRANRLLDGVPSRFSGSGSGQDYTLTISSLQPEDFATYYCLQYDEFPFTFGQGTKLEIKR | binds | binds |  |  | 
humanized antibody 101F4H2L3 (antibody, human IgG4 S228P, kappa, V domains shown, Human IgG4 (S228P)/kappa) VH: QVQLVQSGAEVKKPGASVKVSCKVSGYTFTDYEMHWVRQAPGKGLEWMGAIDPETGGIVYNQRFKGRVTLTADTSTDTAYMELSSLRSEDTAVYYCATAGWGYWGQGTTVTVSS VL: DIQITQSPSSLSASVGDRVTITCKASQDINSYLSWFQQKPGKAPKLLIYRANRLLDGVPSRFSGSGSGQDYTLTISSLQPEDFATYYCLQYDEFPFTFGQGTKLEIKR | binds | binds |  |  | 
humanized antibody 101F4H0L0 (antibody, human IgG4 S228P, kappa, V domains shown, Human IgG4 (S228P)/kappa) VH: QVQLVQSGAEVKKPGASVKVSCKVSGYTFTDYEMHWVRQAPGKGLEWMGAIDPETGGIVYNQRFKGRVTMTEDTSTDTAYMELSSLRSEDTAVYYCATAGWGYWGQGTTVTVSS VL: DIQMTQSPSSLSASVGDRVTITCKASQDINSYLSWYQQKPGKAPKLLIYRANRLLDGVPSRFSGSGSGTDFTLTISSLQPEDFATYYCLQYDEFPFTFGQGTKLEIKR | binds | binds |  |  | 
humanized antibody 101F4H3L3 (antibody, human IgG4 S228P, kappa, V domains shown, Human IgG4 (S228P)/kappa) VH: QVQLVQSGAEVKKPGASVKVSCKASGYTFTDYEMHWVRQAPGKGLEWMGAIDPETGGIVYNQRFKGRATLTADTSTDTAYMELSSLRSEDTAVYYCAGAGWGYWGQGTTVTVSS VL: DIQITQSPSSLSASVGDRVTITCKASQDINSYLSWFQQKPGKAPKLLIYRANRLLDGVPSRFSGSGSGQDYTLTISSLQPEDFATYYCLQYDEFPFTFGQGTKLEIKR | binds | binds |  |  | 
humanized antibody 134G10H2L2 (antibody, human IgG4 S228P, kappa, V domains shown, Human IgG4 (S228P)/kappa) VH: EVQLVESGGGLVKPGGSLRLSCAASGFTFSSFGMSWVRQAPGKRLEWVSIISSGGTYTFYPDILKGRFTISRDNAKNSLYLQMNSLRAEDTAVYYCARVYSDYDGRFDYWGQGTLVTVSS VL: DIVMTQSPSSLAVSLGERATINCKSSQSLLNSGNQKNYLAWYQQKPGQPPKLLIYGASTRESGVPDRFSGSGSGTDFTLTISSLQAEDVAVYYCQNDHSYPLTFGAGTKLEIKR |  |  | binds | binds | 
humanized antibody 134G10H2L3 (antibody, human IgG4 S228P, kappa, V domains shown, Human IgG4 (S228P)/kappa) VH: EVQLVESGGGLVKPGGSLRLSCAASGFTFSSFGMSWVRQAPGKRLEWVSIISSGGTYTFYPDILKGRFTISRDNAKNSLYLQMNSLRAEDTAVYYCARVYSDYDGRFDYWGQGTLVTVSS VL: DIVMTQSPSSLAVSLGERATINCKSSQSLLNSGNQKNYLAWYQQKPGQPPKLLIYGASTRESGVPDRFTGSGSGTDFTLTISSLQAEDVAVYYCQNDHSYPLTFGAGTKLEIKR |  |  |  |  | Kd [2]: 0.262 nM; kon [2]: 166000 M⁻¹ s⁻¹; Kd [4]: 0.000201 nM

Continued, in another order:

binding result [5] | binding result [6] | binding result [7] | binding result [8] | Binder | also measured
 |  | binds | binds | humanized antibody 134G10H3L3 (antibody, human IgG4 S228P, kappa, V domains shown, Human IgG4 (S228P)/kappa) VH: EVQLVESGGGLVKPGGSLRLSCAASGFTFSSFGMSWVRQAPGKRLEWVGIISSGGTYTFYPDILKGRFTISRDNAKNSLYLQMNSLRAEDTAVYYCARVYSDYDGRFDYWGQGTLVTVSS VL: DIVMTQSPSSLAVSLGERATINCKSSQSLLNSGNQKNYLAWYQQKPGQPPKLLIYGASTRESGVPDRFTGSGSGTDFTLTISSLQAEDVAVYYCQNDHSYPLTFGAGTKLEIKR | 
 |  | binds | binds | humanized antibody 134G10H3L2 (antibody, human IgG4 S228P, kappa, V domains shown, Human IgG4 (S228P)/kappa; also called 134G10H3VL2) VH: EVQLVESGGGLVKPGGSLRLSCAASGFTFSSFGMSWVRQAPGKRLEWVGIISSGGTYTFYPDILKGRFTISRDNAKNSLYLQMNSLRAEDTAVYYCARVYSDYDGRFDYWGQGTLVTVSS VL: DIVMTQSPSSLAVSLGERATINCKSSQSLLNSGNQKNYLAWYQQKPGQPPKLLIYGASTRESGVPDRFSGSGSGTDFTLTISSLQAEDVAVYYCQNDHSYPLTFGAGTKLEIKR | 
 |  | binds | binds | humanized antibody 134G10H0L0 (antibody, human IgG4 S228P, kappa, V domains shown, Human IgG4 (S228P)/kappa) VH: EVQLVESGGGLVKPGGSLRLSCAASGFTFSSFGMSWVRQAPGKGLEWVSIISSGGTYTFYPDILKGRFTISRDNAKNSLYLQMNSLRAEDTAVYYCARVYSDYDGRFDYWGQGTLVTVSS VL: DIVMTQSPDSLAVSLGERATINCKSSQSLLNSGNQKNYLAWYQQKPGQPPKLLIYGASTRESGVPDRFSGSGSGTDFTLTISSLQAEDVAVYYCQNDHSYPLTFGQGTKLEIKR | 
